Measurements from US7098013B2, “Polypeptide having α-isomaltosyl-transferase activity” (Kabushiki Kaisha Hayashibara Seibutsu Kagaku Kenkyujo, priority 2000, dated 2006).

Tests used:
[1] = Optimum temperature of the enzyme activity; type: biochemical; conditions: incubated for 30 min, pH 6.0
Method: (§1) The activity of α-isomaltosyl-transferring enzyme was measured by the following assay: A substrate solution was prepared by dissolving panose in 100 mM acetate buffer (pH 6.0) to give a concentration of 2% (w/v). A reaction mixture was prepared by mixing 0.5 ml of the substrate solution and 0.5 ml of an enzyme solution, and incubated at 35° C. for 30 min. After stopping the reaction by boiling for 10 min, the amount of glucose formed in the reaction mixture was determined by the glucose oxidase-peroxidase method. One unit of α-isomaltosyl-transferring activity was defined as the amount of the enzyme that forms one μmole of glucose per minute under the above conditions.
A purified specimen of polypeptide having α-isomaltosyl-transferring activity, obtained by the method in Experiment 3-2, was acted on the substrate in 20 mM acetate buffer (pH6.0) at various temperatures for 30 min, according to the assay method of α-isomaltosyl-transferring enzyme disclosed in Experiment 1-1.

[2] = Optimum pH of the enzyme activity; type: biochemical; conditions: MacIlvaine buffer, 35° C., 30 min
Method: as §1
A purified specimen of polypeptide having α-isomaltosyl-transferring activity, obtained by the method in Experiment 3-2, was acted on the substrate in MacIlvaine buffer of various pHs at 35° C. for 30 min according to the assay method of α-isomaltosyl-transferring enzyme disclosed in Experiment 1-1.

[3] = Thermal stability of the polypeptide; type: physicochemical; conditions: 20 mM acetate buffer (pH 6.0), 60 min
Method: A purified specimen of polypeptide having α-isomaltosyl-transferring activity, obtained by the method in Experiment 3-2, was incubated in 20 mM acetate buffer (pH6.0) at various temperatures for 60 min according to the assay method of α-isomaltosyl-transferring enzyme disclosed in Experiment 1-1.

B1: polypeptide having α-isomaltosyl-transferring enzyme activity from Bacillus globisporus N75: purified α-isomaltosyl-transferring enzyme from Bacillus globisporus N75 (FERM BP-7591), contains the … (protein, listed as Bacillus globisporus)
chain: IDGVYHAPYGIDDLYEIQATERSPRDPVAGETVYIKITTWPIEPGQTAWVTWTKNGVAQPAVGAAYKYNSGNNTYWEANLGSFAKGDVISYTVRGNKDGANEKTAGPFTFTVTDWEYVSSIGSVTNNTNRVLLNAVPNTGTLSPKINISFTADDVFRVQLSPTGSGTLSTGLSNFTVTDSASTAWISTSKLKLKVDKNPFKLSVYKPDGTTLIARQYDSTANRNLAWLTNGSTVINKIEDHFYSPASEEFFGFGERYNNFRKRGTDVDTYVYNQYKNQNDRTYMAIPFMLNSSGYGIFVNSTYYSKFRLATERSDMYSFTADTGGSANSTLDYYFIYGNDLKGVVSNYANITGKPAALPKWAFGLWMSANEWDRQSKVATAINNANTNNIPATAVVLEQWSDENTFYMFNDAQYTAKPGGSTHSYTDYIFPAAGRWPNPKQMADNVHSNGMKLVLWQVPIQKWTAAPHLQKDNDESYMIAQNYAVGNGSGGQYRIPSGQWFENSLLLDFTNPSAKNWWMSKRAYLFDGVGIDGFKTDGGEMVWGRWNTFANGKKGDEMRNQYPNDYVKAYNEYARSKKSDAVSFSRSGTQGAQANQIFWSGDQESTFGAFQQAVQAGLTAGLSGVPYWSWDLAGFTGAYPSAELYKRATAMSAFAPIMQFHSEANGSSGINEERSPWNAQARTGDNTIISHFAKYTNTRMNLLPYIYSEAKAASDTGVPMMRAMALEYPSDTQTYGLTQQYMFGGSLLVAPVLNQGETNKNIYLPQGDWIDFWFGAQRPGGRTISYYAGVDDLPVFVKSGSILPMNLNGQYQVGGTIGNSLTAYNNLTFRIYPLGTTTYSWNDDIGGSVKTITSTEQYGLNKETVTLPAINSAKTLQVFTTKPSSVTLGGTALTAHSTLSALIGASSGWYYDTVQKLAYVKLGASSSAQTVVLDGVNKVEYEAEFGTLTGVTTNTNHAGYMGTGFVDGFDAAGDAVTFDVSVKAAGTYALKVRYASAGGNASRAIYVNNAKVTDLALPATANWDTWGTATVNVALNAGYNSIKVSYDNTNTLGINLDNIAIVEH
In the case of B1, the optimum temperature [1] is reported as “about 50 °C”, the “optimum pH” value [2] is reported as “about 6.0” and the thermal stability [3] is reported as “up to 45 °C”.
